Substitutions are numbered along the chain they refer to. Numbers in names are those of the source.
T1: Recombinant human VEGFR-3-Fc chimera (human, UniProt P35916 25-775)
T1 construct: human VEGFR-3 part of the bought Fc chimera; source: bought: R&D Systems
T1 sequence (looked up): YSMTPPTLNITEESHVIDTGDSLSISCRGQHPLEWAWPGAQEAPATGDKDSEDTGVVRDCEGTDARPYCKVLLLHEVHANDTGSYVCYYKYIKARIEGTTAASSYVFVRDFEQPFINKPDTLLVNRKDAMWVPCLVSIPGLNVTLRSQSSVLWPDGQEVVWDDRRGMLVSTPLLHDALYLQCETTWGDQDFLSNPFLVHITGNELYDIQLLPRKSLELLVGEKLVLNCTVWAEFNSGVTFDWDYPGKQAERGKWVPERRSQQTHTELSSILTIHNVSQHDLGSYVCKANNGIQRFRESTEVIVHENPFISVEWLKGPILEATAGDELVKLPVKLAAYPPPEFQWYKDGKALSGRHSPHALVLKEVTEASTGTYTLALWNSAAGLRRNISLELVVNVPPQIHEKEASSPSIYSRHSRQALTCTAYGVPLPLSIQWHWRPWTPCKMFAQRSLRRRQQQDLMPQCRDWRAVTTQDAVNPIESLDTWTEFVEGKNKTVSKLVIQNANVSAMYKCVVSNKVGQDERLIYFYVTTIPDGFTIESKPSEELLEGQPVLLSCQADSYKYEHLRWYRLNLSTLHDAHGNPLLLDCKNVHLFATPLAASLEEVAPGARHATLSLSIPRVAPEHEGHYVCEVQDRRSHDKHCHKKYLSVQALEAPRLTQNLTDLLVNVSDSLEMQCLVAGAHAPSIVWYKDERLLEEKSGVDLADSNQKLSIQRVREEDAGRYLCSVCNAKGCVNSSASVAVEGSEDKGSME

B1: VEGF-DΔNΔC (ligand, human, UniProt O43915 93-201, looked up)
chain: FYDIETLKVIDEEWQRTQCSPRETCVEVASELGKSTNTFFKPPCVNVFRCGGCCNEESLICMNTSTSYISKQLFEISVPLTSVPELVPVKVANHTGCKCLPTAPRHPYS
notes: human VEGF-D, residues 93-201 (recombinant form of mature VEGF-D); also called mature human VEGF-D; source: 293-F cells, transiently transfected; purified from conditioned medium on M2 (anti-FLAG) gel; not shown: FLAG, N-terminal, kept
B2: VEGF-DΔNΔC T98A (ligand, human, UniProt O43915 93-201, looked up)
chain: B1 chain with T6A
notes: human VEGF-D, residues 93-201, Thr98 to alanine; source: 293-F cells, transiently transfected; purified from conditioned medium on M2 (anti-FLAG) gel; not shown: FLAG, N-terminal, kept
B3: VEGF-DΔNΔC I96A (ligand, human, UniProt O43915 93-201, looked up)
chain: B1 chain with I4A
notes: human VEGF-D, residues 93-201, residue 96 (Ile) to alanine; source: 293-F cells, transiently transfected; purified from conditioned medium on M2 (anti-FLAG) gel; not shown: FLAG, N-terminal, kept
B4: VEGF-DΔNΔC W106A (ligand, human, UniProt O43915 93-201, looked up)
chain: B1 chain with W14A
notes: human VEGF-D, residues 93-201, W106A; source: 293-F cells, transiently transfected; purified from conditioned medium on M2 (anti-FLAG) gel; not shown: FLAG, N-terminal, kept
B5: VEGF-DΔNΔC D95A (ligand, human, UniProt O43915 93-201, looked up)
chain: B1 chain with D3A
notes: human VEGF-D, residues 93-201, Asp95 to alanine; source: 293-F cells, transiently transfected; purified from conditioned medium on M2 (anti-FLAG) gel; not shown: FLAG, N-terminal, kept
B6: VEGF-DΔNΔC F93A (ligand, human, UniProt O43915 93-201, looked up)
chain: B1 chain with F1A
notes: human VEGF-D, residues 93-201, Phe93 to alanine; source: 293-F cells, transiently transfected; purified from conditioned medium on M2 (anti-FLAG) gel; not shown: FLAG, N-terminal, kept
B7: VEGF-DΔNΔC Y94A (ligand, human, UniProt O43915 93-201, looked up)
chain: B1 chain with Y2A
notes: human VEGF-D, residues 93-201, Y94A; source: 293-F cells, transiently transfected; purified from conditioned medium on M2 (anti-FLAG) gel; not shown: FLAG, N-terminal, kept
B8: VEGF-DΔNΔC D103A (ligand, human, UniProt O43915 93-201, looked up)
chain: B1 chain with D11A
notes: human VEGF-D, residues 93-201, D103A; source: 293-F cells, transiently transfected; purified from conditioned medium on M2 (anti-FLAG) gel; not shown: FLAG, N-terminal, kept
B9: VEGF-DΔNΔC I102A (ligand, human, UniProt O43915 93-201, looked up)
chain: B1 chain with I10A
notes: human VEGF-D, residues 93-201, I102A; source: 293-F cells, transiently transfected; purified from conditioned medium on M2 (anti-FLAG) gel; not shown: FLAG, N-terminal, kept
B10: VEGF-DΔNΔC E97A (ligand, human, UniProt O43915 93-201, looked up)
chain: B1 chain with E5A
notes: human VEGF-D, residues 93-201, Glu97 to alanine; source: 293-F cells, transiently transfected; purified from conditioned medium on M2 (anti-FLAG) gel; not shown: FLAG, N-terminal, kept
B11: VEGF-DΔNΔC E105A (ligand, human, UniProt O43915 93-201, looked up)
chain: B1 chain with E13A
notes: human VEGF-D, residues 93-201, E105A; source: 293-F cells, transiently transfected; purified from conditioned medium on M2 (anti-FLAG) gel; not shown: FLAG, N-terminal, kept
B12: VEGF-DΔNΔC L99A (ligand, human, UniProt O43915 93-201, looked up)
chain: B1 chain with L7A
notes: human VEGF-D, residues 93-201, L99A; source: 293-F cells, transiently transfected; purified from conditioned medium on M2 (anti-FLAG) gel; not shown: FLAG, N-terminal, kept

What was measured:
[1] = biological target: T1, Recombinant human VEGFR-3-Fc chimera
[2] = biological target: T1, Recombinant human VEGFR-3-Fc chimera; test: ELISA; plates coated with human VEGFR-2- or VEGFR-3-Fc chimera at 0.5 μg/ml in 100 mM carbonate buffer pH 9.5; blocked with 1% BSA in PBS, 0.1% Tween 20; 20 ng purified FLAG-tagged ligand in 100 μl PBS, 1 h, room temperature; bound ligand detected with M2-HRP; result as percent of VEGF-DΔNΔC; conditions: both partners purified
[3] = biological target: T2, Recombinant human VEGFR-2-Fc chimera (human, UniProt P35968 20-764); test: as above; conditions: both partners purified
T2 construct: human VEGFR-2 part of the bought Fc chimera; source: bought: R&D Systems
T2 sequence (P35968 20-764, change not shown): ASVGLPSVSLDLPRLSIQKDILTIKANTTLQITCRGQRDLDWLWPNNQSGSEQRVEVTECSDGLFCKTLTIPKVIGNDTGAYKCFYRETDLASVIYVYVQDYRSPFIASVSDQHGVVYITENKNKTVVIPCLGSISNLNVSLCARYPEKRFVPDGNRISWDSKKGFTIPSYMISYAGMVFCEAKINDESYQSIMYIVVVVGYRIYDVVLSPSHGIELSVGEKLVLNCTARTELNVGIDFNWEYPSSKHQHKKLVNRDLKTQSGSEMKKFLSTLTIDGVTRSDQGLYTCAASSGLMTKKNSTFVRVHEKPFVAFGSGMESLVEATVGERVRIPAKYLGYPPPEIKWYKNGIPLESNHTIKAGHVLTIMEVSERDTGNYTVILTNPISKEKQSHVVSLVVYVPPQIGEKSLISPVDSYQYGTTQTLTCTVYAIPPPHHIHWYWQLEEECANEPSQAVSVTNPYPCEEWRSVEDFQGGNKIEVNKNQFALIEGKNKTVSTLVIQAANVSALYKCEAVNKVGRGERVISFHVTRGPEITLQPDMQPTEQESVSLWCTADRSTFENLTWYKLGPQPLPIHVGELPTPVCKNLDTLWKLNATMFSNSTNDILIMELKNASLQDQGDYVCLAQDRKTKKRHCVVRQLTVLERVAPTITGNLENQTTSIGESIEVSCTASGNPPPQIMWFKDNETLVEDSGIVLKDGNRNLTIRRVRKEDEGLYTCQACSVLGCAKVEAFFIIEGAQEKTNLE

Row | Molecule | titration of ligand in the bioassay of VEGFR-3 binding and cross-linking; potency relative to VEGF-DΔNΔC (Fig. 6C) [1] | binding result [2] | binding result [3]
1 | VEGF-CΔNΔC (from UniProt P49767 102-229) (ligand) | 10 fold |  | 
2 | B1 |  | binds | binds
3 | B2 |  |  | binds
4 | B3 |  |  | binds
5 | B4 |  | binds | binds
6 | B5 |  |  | binds
7 | B6 |  |  | binds
8 | B7 |  |  | binds
9 | B8 |  | binds | binds
10 | B9 |  | binds | binds
11 | B10 |  |  | binds
12 | B11 |  | binds | binds
13 | B12 |  |  | binds

Reference: PMC5207153, “Differential Receptor Binding and Regulatory Mechanisms for the Lymphangiogenic Growth Factors Vascular Endothelial Growth Factor (VEGF)-C and -D*^([image sbox.jpg])” (The Journal of Biological Chemistry, 2016)
